Publication PMC9775641, “Conformational Dynamics of the Receptor-Binding Domain of the SARS-CoV-2 Spike Protein” (Biomedicines, 2022)

Target: T1, Wild-type (WT) receptor-binding domain (RBD) of SARS-CoV-2 spike protein, 330-528 aa fragment (SARS-CoV-2, wild type (Wuhan-1), UniProt P0DTC2)
T1 construct: also called WT RBD; wild-type RBD
Assay: SPR
Details: both partners purified

B1: SARS-CoV-2 neutralizing antibody P4A1 (full-length IgG1) (antibody, V domains shown)
VH: EVQLVESGGGLIQPGGSLRLSCAASGFIVSSNYMSWVRQAPGKGLEWVSIIYSGGSTFYADSVKGRFTISRDNSKNTLYLQMNSLRVEDTAVYYCARDLQELGSLDYWGQGTLVTVSS
VL: DIQMTQSPSSVSASVGDRVTITCRASQGISSWLAWYQQKPGKAPKLLIYAASSLQSGVPSRFSGSGSGTDFTLTISSLQPEDFATYYCQEANSFPYTFGQGTKLEIK
notes: also called P4AI; Ab
How did the kon turn out when B1 was run?
Its kon is 770000 M⁻¹ s⁻¹.
